The chains are these.
B1: hzmAb5-06 LV2aHV17 antibody (antibody, V domains shown)
VH: QVQLQQSGPGLVKPSQTLSITCTVSGFSLNNYGVHWVRQPPGKGLEWLGVIWSAGTTVYNAAAISRLTISKDDSKSQVSFKMSSLTAADTAIYYCAKDGSRYYTAMDYWGQGTLVTVSS
VL: DIVMTQSPLSLPVTLGEPASISCRSSQSLVHRNGITFFHWYLQKPGQSPKLLIYKISNRFSGVPDRFSGSGSGTDFTLKISRVEAEDVGVYYCSQGTHVPPTFGQGTKVEIK
notes: humanized
B2: hzmAb5-06 LV2bHV17 antibody (antibody, V domains shown)
VH: B1 VH
VL: B1 VL with L15P, Y92F
notes: humanized
B3: hzmAb5-06 LV1bHV17 antibody (antibody, V domains shown)
VH: B1 VH
VL: B1 VL with K50Q
notes: humanized
B4: hzmAb5-06 LV5HV17 antibody (antibody, V domains shown)
VH: B1 VH
VL: B1 VL with I2V, Y92F, V109L
notes: humanized
B5: hzmAb5-06 LV0HV17 antibody (antibody, V domains shown)
VH: B1 VH
VL: B1 VL with L15P, K50Q
notes: humanized
B6: hzmAb5-06 LV1aHV17 antibody (antibody, V domains shown)
VH: B1 VH
VL: B1 VL with L15P
notes: humanized
B7: hzmAb5-06 LV4HV17 antibody (antibody, V domains shown)
VH: B1 VH
VL: B1 VL with Y92F, V109L
notes: humanized
B8: hzKM5907 LV2bHV2a antibody (antibody, V domains shown)
VH: EVQLLESGGGLVQPGGSLRLSCAASGFTFSRYGMSWVRQAPGKRLEWVSSISATFTYTYYTDNVKGRFTISRDNSKNTLYLQMNSLRAEDTAVYYCARQDNYAWFDSWGQGTLVTVSS
VL: DIVMTQTPLSLPVTSGEPVSISCRSSQSIVHSNGNTFLEWYLKKPGQSPQLLIYKVSSRFSGVPDRFSGSGSGTDFTLKISRVEAEDVGVYYCFQGSHIPWTFGGGTKVEIK
notes: humanized; also called hzmAb5907 LV2bHV2a
B9: hzKM5907 LV1aHV7 antibody (antibody, V domains shown)
VH: B8 VH with L4V, S49A, A92G, V93M, A97T
VL: B8 VL with V19A
notes: humanized; also called hzmAb5907 LV1aHV7
B10: hzKM5907 LV1bHV7 antibody (antibody, V domains shown)
VH: B8 VH with L4V, S49A, A92G, V93M, A97T
VL: B8 VL with V19A, K43Q, Q50K
notes: humanized; also called hzmAb5907 LV1bHV7
B11: hzKM5907 LV0HV0 antibody (antibody, V domains shown)
VH: B8 VH with R44G, R98K
VL: B8 VL with V19A, K43Q
notes: humanized; also called hzmAb5907 LV0HV0
B12: hzKM5907 LV1aHV0 antibody (antibody, V domains shown)
VH: B8 VH with R44G, R98K
VL: B8 VL with V19A
notes: humanized; also called hzmAb5907 LV1aHV0
B13: hzKM5907 LV1bHV0 antibody (antibody, V domains shown)
VH: B8 VH with R44G, R98K
VL: B8 VL with V19A, K43Q, Q50K
notes: humanized; also called hzmAb5907 LV1bHV0
B14: hzKM5907 LV1cHV0 antibody (antibody, V domains shown)
VH: B8 VH with R44G, R98K
VL: B8 VL with K43Q
notes: humanized; also called hzmAb5907 LV1cHV0
B15: hzKM5907 LV0HV7 antibody (antibody, V domains shown)
VH: B8 VH with L4V, S49A, A92G, V93M, A97T
VL: B8 VL with V19A, K43Q
notes: humanized; also called hzmAb5907 LV0HV7

Residue numbers refer to the chain shown, from its start.

In this test the target is T1, human CC chemokine receptor 1 (human CCR1) (human, UniProt P32246 1-355).
T1 construct: endogenous on THP-1 cells in the migration assays; also called hCCR1; CHO-S-hCCR1 (expressing cells)
T1 sequence: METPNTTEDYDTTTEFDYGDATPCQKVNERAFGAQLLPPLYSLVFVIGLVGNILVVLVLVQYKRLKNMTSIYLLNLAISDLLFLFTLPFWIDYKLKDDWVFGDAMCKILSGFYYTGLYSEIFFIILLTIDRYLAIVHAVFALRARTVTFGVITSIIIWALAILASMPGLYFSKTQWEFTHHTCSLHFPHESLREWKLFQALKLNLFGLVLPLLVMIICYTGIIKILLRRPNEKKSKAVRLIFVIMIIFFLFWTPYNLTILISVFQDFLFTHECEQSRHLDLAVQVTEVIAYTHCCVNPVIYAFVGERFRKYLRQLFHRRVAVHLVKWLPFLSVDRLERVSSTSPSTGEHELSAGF
Briefly: flow cytometry on CHO-S-hCCR1 cells; bound = fluorescence 10 times or more that of isotype control hzDNP1. As for the experimental part: The antigen affinity of the chKM5908′ antibody, which is a VL-substituted chimeric antibody, was measured by flow cytometry using the CHO-S-hCCR1 cells produced in Example 2. The cells were collected by centrifugation, the supernatant was removed, and the cells were suspended in PBS (Staining Medium, hereinafter, abbreviated as SM) containing 2% fetal bovine serum (FBS), 0.05% NaN₃, and 1 mM EDTA. Next, the cells were seeded in a 96-well plate so that the number of cells is 1×10⁵ per well, and the chKM5908′ antibody was added at each final concentration of 10,000, 2,000, 400, 80, 16, and 3.2 ng/mL, and the reaction was performed at 4° C. for 60 minutes. After washing the cells with SM, Goat F (ab′)₂ Anti-Human IgG PE (γ chain specific) (Southern Biotech) diluted 500-fold with SM was added and reacted at 4° C. for 60 minutes. After washing the cells with SM, the cells were resuspended in 50 μL of SM, and the fluorescence intensity was measured by the flow cytometry (FACS Canto II, BD Biosciences).
Next, a modified antibody was obtained using the method described in Example 12-(3). […] Hereinafter referred to as hzDNP1)] were determined to bind to the human CCR1.
(A flow cytometer gives signals particle by particle.)
For B1, the binding result was “binds”. For the molecule B2, the binding result is on record as “binds”.

For B3, the binding result is “binds”. For the molecule B4, the binding result was “binds”.

On to B5, for which the binding result is reported as “binds”.

For B6, the binding result is “binds”.

As for B7, the binding result was “binds”. To B8 belongs “binds”. Consider B9, for which the binding result is given as “binds”.

With B10, the binding result was “binds”.

In the case of B11, the binding result is recorded as “binds”. Consider B12, for which the binding result was “binds”. To B13 belongs “binds”; to B14, “binds”. B15: the binding result is listed as “binds”.

The values above are taken from US20240026017A1 (Kyowa Kirin, published 2024).
